In patent US20190389957A1 (SINGAPORE HEALTH SERVICES PTE, published 2019):

How the values were obtained:
[1] = target: T1, Recombinant human IL-11Rα (Sino Biological Cat. No. 10252-H08H) (human, UniProt Q14626 23-363); test: SPR, BIAcore T200, multi-cycle kinetics; recombinant human IL-11Rα immobilised, antibody (IgG1 format) flowed at 100 to 1.56 nM; 1:1 model; analysis (1); Chi2 0.181 RU2
T1 construct: Bought protein, immobilised on the chip
T1 sequence (looked up): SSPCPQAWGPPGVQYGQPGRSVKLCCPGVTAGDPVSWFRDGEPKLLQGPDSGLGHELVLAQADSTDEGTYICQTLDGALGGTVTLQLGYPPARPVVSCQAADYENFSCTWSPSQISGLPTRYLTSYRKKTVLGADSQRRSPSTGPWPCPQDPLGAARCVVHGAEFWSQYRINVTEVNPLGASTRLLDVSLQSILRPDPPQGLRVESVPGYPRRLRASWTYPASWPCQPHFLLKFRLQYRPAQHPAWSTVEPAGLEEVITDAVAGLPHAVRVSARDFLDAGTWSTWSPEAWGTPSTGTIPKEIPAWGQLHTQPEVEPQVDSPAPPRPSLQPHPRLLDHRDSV

[2] = target: T2, Human IL-11Rα endogenously expressed on primary human cells (human, UniProt Q14626 23-422); test: cell-based or functional assay
T2 sequence (looked up): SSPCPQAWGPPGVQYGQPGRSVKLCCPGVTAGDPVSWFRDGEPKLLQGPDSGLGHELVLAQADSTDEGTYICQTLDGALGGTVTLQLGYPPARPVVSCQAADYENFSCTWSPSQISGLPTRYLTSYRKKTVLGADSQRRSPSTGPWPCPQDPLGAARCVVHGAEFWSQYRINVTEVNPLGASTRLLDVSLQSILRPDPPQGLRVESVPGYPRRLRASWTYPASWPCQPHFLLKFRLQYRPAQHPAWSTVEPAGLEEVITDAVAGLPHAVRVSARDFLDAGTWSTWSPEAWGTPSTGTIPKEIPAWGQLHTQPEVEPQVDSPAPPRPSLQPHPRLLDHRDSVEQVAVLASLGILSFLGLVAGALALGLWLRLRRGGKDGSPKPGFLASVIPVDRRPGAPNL

[3] = target: T2, Human IL-11Rα endogenously expressed on …; test: cell-based or functional assay; remark: listed apart in the source
[4] = target: T2, Human IL-11Rα endogenously expressed on …; test: cell-based or functional assay; remark: listed apart in the source
[5] = target: T2, Human IL-11Rα endogenously expressed on …; test: cell-based or functional assay; remark: listed apart in the source
[6] = target: T2, Human IL-11Rα endogenously expressed on …; test: cell-based or functional assay; remark: listed apart in the source
[7] = target: T1, Recombinant human IL-11Rα (Sino …); test: SPR, BIAcore T200, multi-cycle kinetics; recombinant human IL-11Rα immobilised, antibody (IgG1 format) flowed at 50 to 1.56 nM; 1:1 model; analysis (2); Chi2 0.0356 RU2
[8] = target: Tagged human IL-11Rα expressed at the surface of transiently transfected cells (human) (UniProt Q14626); test: same assay; by the legend the percent is the strength of binding relative to the anti-FLAG positive control (100%); negative control 3%
[9] = target: T3, IL-11Rα as used in the Biacore kinetics of Example 14 (UniProt Q14626 23-363, limits assumed); test: SPR (Biacore T200), multi-cycle kinetics, 25 C, HBS-P+ pH 7.4 with 0.1% BSA
T3 sequence (looked up): T1 sequence (looked up)
Protocol: The six antibodies were assessed by multi-cycle kinetics analysis at a final concentration of 1 μg/ml, run at 25° C. with HBS-P+ running buffer (pH 7.4) containing 0.1% BSA using a Biacore T200 instrument.
The relative KD was calculated by dividing the KD of the humanised variant by that of the 9A7 antibody assayed in the same experiment. All six humanised antibodies bound to IL-11R within two-fold of 9A7 (SEQ ID NO:7 and 13).

[10] = target: Tagged human IL-11Rα expressed at the surface of transiently transfected cells (human) (UniProt Q14626); test: flow cytometry of subcloned hybridoma supernatant on cells transiently transfected with FLAG-tagged human IL-11Rα (sheet head: 'cells transfected with pB1-IL11-hum.FL', 'flow cytometry (Attunes)'); fluorescent anti-mouse IgG secondary; negative control GMFI 930
[11] = target: T4, IL-11:IL-11Rα fusion protein (hyper IL-11); test: cell-based or functional assay
T4 chain: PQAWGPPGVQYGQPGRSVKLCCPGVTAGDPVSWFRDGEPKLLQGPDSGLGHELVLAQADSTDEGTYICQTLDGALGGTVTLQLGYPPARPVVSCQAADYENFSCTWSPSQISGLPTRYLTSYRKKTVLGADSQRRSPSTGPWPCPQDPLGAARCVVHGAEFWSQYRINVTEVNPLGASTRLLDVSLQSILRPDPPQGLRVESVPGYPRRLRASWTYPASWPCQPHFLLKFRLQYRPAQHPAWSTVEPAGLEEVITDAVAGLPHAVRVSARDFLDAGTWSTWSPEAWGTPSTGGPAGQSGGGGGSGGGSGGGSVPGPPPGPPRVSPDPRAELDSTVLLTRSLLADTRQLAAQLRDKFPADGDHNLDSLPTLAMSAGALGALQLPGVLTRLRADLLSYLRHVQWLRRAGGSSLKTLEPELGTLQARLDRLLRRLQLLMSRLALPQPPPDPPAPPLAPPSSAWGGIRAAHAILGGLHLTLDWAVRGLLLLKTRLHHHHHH

[12] = target: T4, IL-11:IL-11Rα fusion protein (hyper …); test: cell-based or functional assay
[13] = target: T5, Mouse IL-11Rα endogenously expressed on primary mouse fibroblasts (mouse, UniProt Q64385 24-432); test: cell-based or functional assay
T5 sequence (looked up): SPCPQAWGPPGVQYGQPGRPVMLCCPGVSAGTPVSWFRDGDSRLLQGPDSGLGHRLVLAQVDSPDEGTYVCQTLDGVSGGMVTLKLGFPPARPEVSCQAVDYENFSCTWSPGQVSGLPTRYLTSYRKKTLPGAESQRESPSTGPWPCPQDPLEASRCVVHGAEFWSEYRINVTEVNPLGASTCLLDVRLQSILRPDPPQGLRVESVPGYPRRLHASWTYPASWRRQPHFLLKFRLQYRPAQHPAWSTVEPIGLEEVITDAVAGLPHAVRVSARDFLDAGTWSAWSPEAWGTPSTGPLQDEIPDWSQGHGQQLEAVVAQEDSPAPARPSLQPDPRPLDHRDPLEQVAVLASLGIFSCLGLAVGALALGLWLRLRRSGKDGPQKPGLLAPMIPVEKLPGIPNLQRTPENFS

B1: Anti-IL-11Rα antibody clone BSO-9A7 (antibody, V domains shown)
VH: QVQLQQPGAELVRPGSSVKLSCKASGYTFTNYWMHWLKQRPVQGLEWIGNIGPSDSKTHYNQKFKDKATLTVDKSSSTAYMQLNSLTSEDSAVYYCARGDYVLFTYWGQGTLVTVSA
VL: DIVLTQSPATLSMTPGDSVSLSCRASQSISNNLHWYQQKSHESPRLLIKYASQSISGIPSRFSGSGSGTDFTLSFNSVETEDFGVYFCQQSYSWPLTFGAGTKLELK
notes: also called RA7; 9A7 VH/VL
Kd [1]: 7.85 nM | koff [1]: 0.000759 s⁻¹ | kon [1]: 96600 M⁻¹ s⁻¹ | IC50 of inhibition of MMP2 secretion by HSCs stimulated with TGFβ1 (5 ng/ml, 24 h) [2]: 0.0054 nM | IC50 of inhibition of MMP2 secretion, primary human hepatic stellate cells + TGFB1 5 ng/ml (endogenous IL-11); upper panel [3]: 0.00093 µg/mL | IC50 of inhibition of MMP2 secretion, primary human hepatic stellate cells + exogenous IL-11 2 ng/ml; lower panel [3]: 0.00164 µg/mL | IC50 of inhibition of MMP2 secretion, human atrial fibroblasts + TGFB1 5 ng/ml, 24 h (panel 'MMP2 - TGFB - 9A7') [4]: 0.082 µg/mL | IC50 of inhibition of TIMP1 secretion, human atrial fibroblasts + TGFB1 5 ng/ml, 24 h (panel 'TIMP1 - TGFB - 9A7') [4]: 0.0974 µg/mL | IC50 of inhibition of TIMP1 secretion, primary human lung fibroblasts + TGFB1 5 ng/ml (panel '9A7') [5]: 0.00229 µg/mL | IC50 of inhibition of MMP2 secretion, primary human atrial fibroblasts + TGFβ1 (panel '9A7') [6]: 0.00588 µg/mL | Kd [7]: 5.46 nM | koff [7]: 0.000875 s⁻¹ | kon [7]: 160000 M⁻¹ s⁻¹ | % positive [8]: 111% | Kd [9]: 4.29 nM | koff [9]: 0.000926 s⁻¹ | kon [9]: 216000 M⁻¹ s⁻¹ | relative KD (KD divided by KD of 9A7) [9]: 1 ratio to 9A7 | GMFI [10]: 34800 | IC50 of inhibition of MMP2 secretion, human atrial fibroblasts + IL-11:IL11RA (hyper IL-11) 0.2 ng/ml (panel 'MMP2 - IL-11:IL11RA - 9A7') [11]: 0.246 µg/mL | IC50 of inhibition of TIMP1 secretion, human atrial fibroblasts + IL-11:IL11RA (hyper IL-11) 0.2 ng/ml (panel 'TIMP1 - IL-11:IL11RA - 9A7') [11]: 0.196 µg/mL | IC50 of inhibition of MMP2 secretion, primary mouse cardiac fibroblasts + IL-11:IL11RA (hyper IL-11) 0.2 ng/ml (panel 'IL-11:IL11RA-driven MMP2 secretion') [12]: 0.0351 µg/mL | IC50 of inhibition of MMP2 secretion, primary mouse cardiac fibroblasts + TGFB1 5 ng/ml (endogenous IL-11) (panel 'TGFB1-driven MMP2 secretion') [13]: 0.0146 µg/mL | IC50 of inhibition of MMP2 secretion, primary mouse cardiac fibroblasts + exogenous IL-11 2 ng/ml (panel 'IL-11-driven MMP2 secretion') [13]: 0.0292 µg/mL
